{"source": "the supplement of paper PMC10567573", "parents": {"B1": {"name": "KCTD10 (parent)", "chain": "SSKEEQKLIATSNKPAVKLLYNRS"}}}
{"variants_of": "B1", "assay": "protein stability index of a GFP-peptide fusion (GPS, HEK-293T) (PSI 1-6); higher = more stable", "conditions": "c terminus: a fixed tail appended"}
{"variant": "SSKEEQKLIAKSNKPAVKLLYNRS", "note": "[T11K]", "protein stability index": 4.19}
{"variant": "SSKEEQKLIATCNKPAVKLLYNRS", "note": "[S12C]", "protein stability index": 3.81}
{"variant": "SSKEEQKLIATANKPAVKLLYNRS", "note": "[S12A]", "protein stability index": 3.89}
{"variant": "SSKEEQKLIATHNKPAVKLLYNRS", "note": "[S12H]", "protein stability index": 3.46}
{"variant": "SSKEEQKLIATINKPAVKLLYNRS", "note": "[S12I]", "protein stability index": 3.92}
{"variant": "SSKEEQKLIATLNKPAVKLLYNRS", "note": "[S12L]", "protein stability index": 3.72}
{"variant": "SSKEEQKLIATENKPAVKLLYNRS", "note": "[S12E]", "protein stability index": 4.42}
{"variant": "SSKEEQKLIATDNKPAVKLLYNRS", "note": "[S12D]", "protein stability index": 4.52}
{"variant": "SSKEEQKLIATFNKPAVKLLYNRS", "note": "[S12F]", "protein stability index": 3.34}
{"variant": "SSKEEQKLIATKNKPAVKLLYNRS", "note": "[S12K]", "protein stability index": 4.27}
{"variant": "SSKEEQKLIATGNKPAVKLLYNRS", "note": "[S12G]", "protein stability index": 3.89}
{"variant": "SVKEEQKLIATSNKPAVKLLYNRS", "note": "[S2V]", "protein stability index": 3.5}
{"variant": "SWKEEQKLIATSNKPAVKLLYNRS", "note": "[S2W]", "protein stability index": 3.26}
{"variant": "SQKEEQKLIATSNKPAVKLLYNRS", "note": "[S2Q]", "protein stability index": 4.25}
{"variant": "SRKEEQKLIATSNKPAVKLLYNRS", "note": "[S2R]", "protein stability index": 4.07}
{"variant": "SYKEEQKLIATSNKPAVKLLYNRS", "note": "[S2Y]", "protein stability index": 3.56}
{"variant": "STKEEQKLIATSNKPAVKLLYNRS", "note": "[S2T]", "protein stability index": 3.86}
{"variant": "SPKEEQKLIATSNKPAVKLLYNRS", "note": "[S2P]", "protein stability index": 4.45}
{"variant": "SSKEGQKLIATSNKPAVKLLYNRS", "note": "[E5G]", "protein stability index": 1.71}
{"variant": "SSKEFQKLIATSNKPAVKLLYNRS", "note": "[E5F]", "protein stability index": 2.26}
{"variant": "SSKESQKLIATSNKPAVKLLYNRS", "note": "[E5S]", "protein stability index": 3.87}
{"variant": "SSKEMQKLIATSNKPAVKLLYNRS", "note": "[E5M]", "protein stability index": 2.97}
{"variant": "SSKEVQKLIATSNKPAVKLLYNRS", "note": "[E5V]", "protein stability index": 2.8}
{"variant": "SSKEDQKLIATSNKPAVKLLYNRS", "note": "[E5D]", "protein stability index": 4.13}
{"variant": "SSKEYQKLIATSNKPAVKLLYNRS", "note": "[E5Y]", "protein stability index": 2.97}
{"variant": "SSKENQKLIATSNKPAVKLLYNRS", "note": "[E5N]", "protein stability index": 3.7}
{"variant": "SSKEKQKLIATSNKPAVKLLYNRS", "note": "[E5K]", "protein stability index": 3.35}
{"variant": "SSKELQKLIATSNKPAVKLLYNRS", "note": "[E5L]", "protein stability index": 2.83}
{"variant": "SSKETQKLIATSNKPAVKLLYNRS", "note": "[E5T]", "protein stability index": 3.82}
{"variant": "SSKECQKLIATSNKPAVKLLYNRS", "note": "[E5C]", "protein stability index": 3.34}
{"variant": "SSKEIQKLIATSNKPAVKLLYNRS", "note": "[E5I]", "protein stability index": 2.97}
{"variant": "SSKEHQKLIATSNKPAVKLLYNRS", "note": "[E5H]", "protein stability index": 3.78}
{"variant": "SSKEQQKLIATSNKPAVKLLYNRS", "note": "[E5Q]", "protein stability index": 3.83}
{"variant": "SSKEAQKLIATSNKPAVKLLYNRS", "note": "[E5A]", "protein stability index": 3.38}
{"variant": "SSKEPQKLIATSNKPAVKLLYNRS", "note": "[E5P]", "protein stability index": 3.56}
{"variant": "SSKERQKLIATSNKPAVKLLYNRS", "note": "[E5R]", "protein stability index": 3.59}
{"variant": "SSKEWQKLIATSNKPAVKLLYNRS", "note": "[E5W]", "protein stability index": 1.79}
{"variant": "SSKEEQLLIATSNKPAVKLLYNRS", "note": "[K7L]", "protein stability index": 3.21}
{"variant": "SSKEEQGLIATSNKPAVKLLYNRS", "note": "[K7G]", "protein stability index": 4.45}
{"variant": "SSKEEQQLIATSNKPAVKLLYNRS", "note": "[K7Q]", "protein stability index": 4.25}
{"variant": "SSKEEQWLIATSNKPAVKLLYNRS", "note": "[K7W]", "protein stability index": 2.87}
{"variant": "SSKEEQALIATSNKPAVKLLYNRS", "note": "[K7A]", "protein stability index": 4.1}
{"variant": "SSKEEQILIATSNKPAVKLLYNRS", "note": "[K7I]", "protein stability index": 3.28}
{"variant": "SSKEEQRLIATSNKPAVKLLYNRS", "note": "[K7R]", "protein stability index": 3.92}
{"variant": "SSKEEQVLIATSNKPAVKLLYNRS", "note": "[K7V]", "protein stability index": 3.68}
{"variant": "SSKEEQMLIATSNKPAVKLLYNRS", "note": "[K7M]", "protein stability index": 3.3}
{"variant": "SSKEEQCLIATSNKPAVKLLYNRS", "note": "[K7C]", "protein stability index": 3.86}
{"variant": "SSKEEQFLIATSNKPAVKLLYNRS", "note": "[K7F]", "protein stability index": 3.02}
{"variant": "SSKEEQYLIATSNKPAVKLLYNRS", "note": "[K7Y]", "protein stability index": 3.29}
{"variant": "SSKEEQDLIATSNKPAVKLLYNRS", "note": "[K7D]", "protein stability index": 4.49}
{"variant": "SSKEEQNLIATSNKPAVKLLYNRS", "note": "[K7N]", "protein stability index": 4.32}
{"variant": "SSKEEQTLIATSNKPAVKLLYNRS", "note": "[K7T]", "protein stability index": 3.87}
{"variant": "SSKEEQSLIATSNKPAVKLLYNRS", "note": "[K7S]", "protein stability index": 3.55}
{"variant": "SSKEEQELIATSNKPAVKLLYNRS", "note": "[K7E]", "protein stability index": 4.4}
{"variant": "SSKEEQHLIATSNKPAVKLLYNRS", "note": "[K7H]", "protein stability index": 3.85}
{"variant": "SSKEEQPLIATSNKPAVKLLYNRS", "note": "[K7P]", "protein stability index": 4.39}
{"variant": "SSFEEQKLIATSNKPAVKLLYNRS", "note": "[K3F]", "protein stability index": 3.83}
{"variant": "SSPEEQKLIATSNKPAVKLLYNRS", "note": "[K3P]", "protein stability index": 4.06}
{"variant": "SSNEEQKLIATSNKPAVKLLYNRS", "note": "[K3N]", "protein stability index": 4.04}
{"variant": "SSAEEQKLIATSNKPAVKLLYNRS", "note": "[K3A]", "protein stability index": 4.67}
{"variant": "SSDEEQKLIATSNKPAVKLLYNRS", "note": "[K3D]", "protein stability index": 4.5}
{"variant": "SSVEEQKLIATSNKPAVKLLYNRS", "note": "[K3V]", "protein stability index": 3.96}
{"variant": "SSMEEQKLIATSNKPAVKLLYNRS", "note": "[K3M]", "protein stability index": 4.08}
{"variant": "SSCEEQKLIATSNKPAVKLLYNRS", "note": "[K3C]", "protein stability index": 3.86}
{"variant": "SSLEEQKLIATSNKPAVKLLYNRS", "note": "[K3L]", "protein stability index": 4.07}
{"variant": "SSHEEQKLIATSNKPAVKLLYNRS", "note": "[K3H]", "protein stability index": 4.23}
{"variant": "SSYEEQKLIATSNKPAVKLLYNRS", "note": "[K3Y]", "protein stability index": 3.26}
{"variant": "SSWEEQKLIATSNKPAVKLLYNRS", "note": "[K3W]", "protein stability index": 3.93}
{"variant": "SSREEQKLIATSNKPAVKLLYNRS", "note": "[K3R]", "protein stability index": 3.97}
{"variant": "SSQEEQKLIATSNKPAVKLLYNRS", "note": "[K3Q]", "protein stability index": 4.25}
{"variant": "SSGEEQKLIATSNKPAVKLLYNRS", "note": "[K3G]", "protein stability index": 3.32}
{"variant": "SSIEEQKLIATSNKPAVKLLYNRS", "note": "[K3I]", "protein stability index": 3.91}
{"variant": "SSEEEQKLIATSNKPAVKLLYNRS", "note": "[K3E]", "protein stability index": 4.16}
{"variant": "SSSEEQKLIATSNKPAVKLLYNRS", "note": "[K3S]", "protein stability index": 3.58}
{"variant": "SSTEEQKLIATSNKPAVKLLYNRS", "note": "[K3T]", "protein stability index": 4.18}
{"variant": "SSKEEQKLVATSNKPAVKLLYNRS", "note": "[I9V]", "protein stability index": 4.34}
{"variant": "SSKEEQKLNATSNKPAVKLLYNRS", "note": "[I9N]", "protein stability index": 4.36}
{"variant": "SSKEEQKLLATSNKPAVKLLYNRS", "note": "[I9L]", "protein stability index": 3.98}
{"variant": "SSKEEQKLQATSNKPAVKLLYNRS", "note": "[I9Q]", "protein stability index": 4.31}
{"variant": "SSKEEQKLGATSNKPAVKLLYNRS", "note": "[I9G]", "protein stability index": 4.54}
{"variant": "SSKEEQKLFATSNKPAVKLLYNRS", "note": "[I9F]", "protein stability index": 4.08}
{"variant": "SSKEEQKLYATSNKPAVKLLYNRS", "note": "[I9Y]", "protein stability index": 4.41}
{"variant": "SSKEEQKLTATSNKPAVKLLYNRS", "note": "[I9T]", "protein stability index": 4.18}
{"variant": "SSKEEQKLDATSNKPAVKLLYNRS", "note": "[I9D]", "protein stability index": 4.74}
{"variant": "SSKEEQKLKATSNKPAVKLLYNRS", "note": "[I9K]", "protein stability index": 4.39}
{"variant": "SSKEEQKLHATSNKPAVKLLYNRS", "note": "[I9H]", "protein stability index": 3.81}
{"variant": "SSKEEQKLWATSNKPAVKLLYNRS", "note": "[I9W]", "protein stability index": 3.93}
{"variant": "SSKEEQKLPATSNKPAVKLLYNRS", "note": "[I9P]", "protein stability index": 4.69}
{"variant": "SSKEEQKLMATSNKPAVKLLYNRS", "note": "[I9M]", "protein stability index": 3.96}
{"variant": "SSKEEQKLSATSNKPAVKLLYNRS", "note": "[I9S]", "protein stability index": 4.34}
{"variant": "SSKEEQKLEATSNKPAVKLLYNRS", "note": "[I9E]", "protein stability index": 4.72}
{"variant": "SSKEEQKLRATSNKPAVKLLYNRS", "note": "[I9R]", "protein stability index": 4.33}
{"variant": "SSKEEQKLCATSNKPAVKLLYNRS", "note": "[I9C]", "protein stability index": 3.91}
{"variant": "SSKEEQKLAATSNKPAVKLLYNRS", "note": "[I9A]", "protein stability index": 3.97}
